Some results are limits rather than exact numbers.

Data set [1] in a line: Toxicity as measured by weight loss / organ evaluation in tumor-bearing mice. The data set is classed as in vivo. The procedure: METHOD: Drug Toxicity determinations. Persistent drug toxicity was assessed by collecting blood via cardiac puncture and submitting the serum for independent analysis of blood urea nitrogen (BUN), creatinine, total protein, AST-SGOT, ALT-SGPT plus a standard hematological cell panel at Ani-Lytics, Inc. (Gaithersburg, Md.). In addition, histopathologic evaluation of formalin-fixed heart, lungs, liver, spleen, kidney, intestine, skeletal muscle and bone (tibia/fibula) were conducted by board-certified pathologists at Animal Reference Pathology Laboratories (ARUP; Salt Lake City, Utah).
METHOD: Toxicity as Measured by Weight Loss.

A short description of data set [2]: Serum binding, human serum. In kind it is in vitro ADME. On the procedure: (§1) METHOD: Serum binding against different species. Compounds are tested with 30K NMWL, subjected to Microcon filtration (10,000 g for 30 minutes), and compounds are detected by HPLC.
A further data set is described as follows: Human serum stability. In kind it is in vitro ADME. From the text: METHOD: Human serum stability.
Data set [3] in a line: Serum binding against different species. In kind it is in vitro ADME. The note with it: human, dog, Balb/c mouse, rat, rabbit, fetal calf serum. The procedure: as §1
The nature of data set [4]: Body weight change of Balb/c mice at doses above therapeutic doses (FIG. 14). As to conditions: intravenous, three times in one week (FIG. 14). On the procedure: METHOD: Toxicity as Measured by Weight Loss. The percentage weight change of the mice was determined in mice (5 mice/group) on selected days post-tumor inoculation (PTI), and graphed.
Each dose was administered three times, every other day, as indicated by the arrows. EC0305 was administered at (Δ) 2 μmol/kg TIW; (∇) 2.5 μmol/kg TIW; and (□) 3 μmol/kg.

Another data set deals with T1, folate receptors (FRs) (Homo sapiens, UniProt P15328).
T1 construct: FR-positive KB cells were heavily seeded into 24-well cell culture plates; endogenous in cells; host or cells: KB cells
T1 sequence (P15328 25-234): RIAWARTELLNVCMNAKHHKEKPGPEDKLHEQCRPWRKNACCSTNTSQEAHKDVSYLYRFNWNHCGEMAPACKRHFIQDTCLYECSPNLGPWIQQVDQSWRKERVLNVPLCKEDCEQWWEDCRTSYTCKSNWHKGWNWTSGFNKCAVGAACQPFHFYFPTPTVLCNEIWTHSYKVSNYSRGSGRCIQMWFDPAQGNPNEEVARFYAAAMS
In words: Relative affinity assay (3H-folic acid displacement on KB cells). The data set is classed as binding. The note with it: 10% serum/FDRPMI; folic acid set to 1. The procedure: METHOD: Relative Affinity Assay. The affinity for folate receptors (FRs) relative to folate was determined according to a previously described method (Westerhof, G. R., J. H. Schornagel, et al. (1995) Mol. Pharm. 48: 459-471) with slight modification. Briefly, FR-positive KB cells were heavily seeded into 24-well cell culture plates and allowed to adhere to the plastic for 18 h. Spent incubation media was replaced in designated wells with folate-free RPMI (FFRPMI) supplemented with 100 nM ^3H-folic acid in the absence and presence of increasing concentrations of test article or folic acid. Cells were incubated for 60 min at 37° C. and then rinsed 3 times with PBS, pH 7.4. Five hundred microliters of 1% SDS in PBS, pH 7.4, were added per well. Cell lysates were then collected and added to individual vials containing 5 mL of scintillation cocktail, and then counted for radioactivity. Negative control tubes contained only the ^3H-folic acid in FFRPMI (no competitor). Positive control tubes contained a final concentration of 1 mM folic acid, and CPMs measured in these samples (representing non-specific binding of label) were subtracted from all samples.

For another data set, the system named is s.c. tumors. In words: Inhibition of tumor growth in mice (tumor model not stated, FIG. 9 and 11). In kind it is in vivo. The note with it: tolerable and highly toxic dose levels (0.1, 0.2, 0.5 μmol/kg TIW), dosing terminated early. The procedure:
METHOD: Inhibition of Tumor Growth in Mice. Four to seven week-old mice (Balb/c or nu/nu strains) were purchased from Harlan Sprague Dawley, Inc. (Indianapolis, Ind.). Normal rodent chow contains a high concentration of folic acid (6 mg/kg chow); accordingly, mice used were maintained on the folate-free diet (Harlan diet #TD00434) for 1 week before tumor implantation to achieve serum folate concentrations close to the range of normal human serum. For tumor cell inoculation, 1×10^6 M109 cells (Balb/c strain) or 1×10^6 KB cells (nu/nu strain) in 100 μL were injected in the subcutis of the dorsal medial area. Tumors were measured in two perpendicular directions every 2-3 days using a caliper, and their volumes were calculated as 0.5×L×W^2, where L=measurement of longest axis in mm and W=measurement of axis perpendicular to L in mm. […] Dosing solutions were prepared fresh each day in PBS and administered through the lateral tail vein of the mice.

By fraction unbound is commonly meant free concentration divided by total concentration. Higher therefore signals much free substance. As a reminder, the half-life is how long it takes for the measured level to halve. A higher half-life goes with slow decline. With `CCCC(=O)OCN(C(=O)[C@@H](NC(=O)[C@H]1CCCCN1C)C(C)CC)[C@H](C[C@@H](OC(C)=O)c1nc(C(=O)N[C@@H](Cc2ccc(O)cc2)C[C@H](C)C(=O)NNC(=O)OCCSSC[C@H](NC(=O)[C@H](CC(=O)O)NC(=O)[C@H](CCCNC(=N)N)NC(=O)[C@H](CC(=O)O)NC(=O)CC[C@H](NC(=O)c2ccc(NCc3cnc4nc(N)[nH]c(=O)c4n3)cc2)C(=O)O)C(=O)O)cs1)C(C)C` (stereo partly drawn) [EC0305], the “weight loss or major organ tissue degeneration” value in data set [1] (Balb/c mice with M109 tumors (FIG. 8)) was “apparent absence of weight loss or major organ tissue degeneration”. Also, the “gross toxicity as determined by changes in weight” value in data set [1] (M109 tumor mice (FIG. 13), 2 μmol/kg TIW, 2 wks) was “not accompanied by any observed gross toxicity”. Besides, the “weight loss or major organ tissue degeneration” value in data set [1] (nu/nu mice with KB tumors (FIG. 6)) is recorded as “apparent absence of weight loss or major organ tissue degeneration”. In data set [2], this molecule gave an unbound share (fraction unbound) of 0.33 and a serum binding of 67%. The same molecule had a half-life in the data set “Human serum stability” of roughly 20 h. Besides, the “serum binding in various species” value in data set [3] is listed as “low serum binding”. For the same molecule, the “dose at which toxicity begins, as determined by changes in weight” value in data set [4] is no less than 2.5 µmol/kg.
At folate receptors (FRs), `Nc1nc2ncc(CNc3ccc(C(=O)N[C@@H](CCC(=O)O)C(=O)O)cc3)nc2c(=O)[nH]1` [folic acid] returned a relative affinity of 1.
For the molecule `CCCC(=O)OCN(C(=O)[C@@H](NC(=O)[C@H]1CCCCN1C)C(C)CC)[C@H](C[C@@H](OC(C)=O)c1nc(C(=O)N[C@@H](Cc2ccc(O)cc2)C[C@H](C)C(=O)O)cs1)C(C)C` (stereo partly drawn) [tubulysin B, reference compound], the “toxicity (dosing terminated early in each cohort)” value in data set [1] (FIG. 9 and 10, 0.1, 0.2, 0.5 μmol/kg TIW) is given as “excessive toxicity”. Also, in data set [1] (FIG. 10, 0.1, 0.2, 0.5 μmol/kg TIW, compared to controls), the “change in percent body weight” value is on record as “dramatic change”. In addition, the “complete or partial responses” value in the data set on s.c. tumors is on record as 0/5.

These data come from patent US9555139B2, “Binding ligand linked drug delivery conjugates of tubulysins” (Endocyte, Inc., priority 2007, dated 2017).
